Results taken from article PMC2715101, “Dimerization of Translationally Controlled Tumor Protein Is Essential For Its Cytokine-Like Activity” (PLoS ONE, 2009).

How the values were obtained:
[1] = target: TCTP in bronchoalveolar lavage fluid (BALF) of mice with airway inflammation (mouse (endogenous in BALB/c BALF)) (UniProt P63028); test: non-reducing SDS-PAGE and Western blotting; BALF from OVA-OVA and N11TCTP-N11TCTP mice
[2] = target: Del-N35TCTP (residues 35-172) (rat) (UniProt P63029); test: SEC; Superdex 200 HR 10/30, 50 mM sodium phosphate pH 7.0, 150 mM NaCl, calibrated with molecular size markers
[3] = target: Del-N35TCTP (residues 35-172) (rat) (UniProt P63029); test: non-reducing SDS-PAGE; proteins completely reduced with 20 mM DTT, transferred to 50 mM Tris pH 7.5, 1 mM EDTA, then oxidized with 0.1, 1 or 10 mM H2O2
[4] = target: Del-N35TCTP (residues 35-172) (rat) (UniProt P63029)
[5] = target: Del-N35TCTP (residues 35-172) (rat) (UniProt P63029); test: non-reducing SDS-PAGE; purified proteins boiled with or without β-ME, 15% gel, coomassie brilliant blue; dimer by intermolecular disulfide bond
[6] = target: Del-N35TCTP (residues 35-172) (rat) (UniProt P63029); test: cross-linking; sulfhydryl crosslinkers BMOE (five-fold molar excess, 2 h) or BM(PEO)3 (five-fold molar excess, 1 h), room temperature, proteins first reduced with 20 mM DTT; each protein alone and their 1/2:1/2 molar mixture; reducing SDS-PAGE
[7] = target: rabbit Fc protein (Fc) (rabbit); test: native gel or EMSA; Fc fusion proteins on a native gel, apparent molecular weights by a molecular size marker
[8] = target: Fc-fused human recombinant TCTP (Fc-HrTCTP) (human | rabbit) (UniProt P13693); test: as above
Del-N35TCTP-C172S (rat) [9] = target: Del-N35TCTP-C172S (rat) (UniProt P63029); test: SEC; Superdex 200 HR 10/30, 50 mM sodium phosphate pH 7.0, 150 mM NaCl, calibrated with molecular size markers
Del-N35TCTP-C172S (rat) [10] = target: Del-N35TCTP-C172S (rat) (UniProt P63029)
[11] = target: the molecule itself; test: non-reducing SDS-PAGE; purified proteins boiled with or without β-ME, 15% gel, coomassie brilliant blue; dimer by intermolecular disulfide bond
[12] = target: the molecule itself; test: cell-based or functional assay

Question: For “TCTP in bronchoalveolar lavage fluid (BALF) of mice with airway inflammation (from UniProt P63028 1-172) (natural protein)”, which stoichiometry N [1] is on record?
Answer: 2

Question: Which results are given for “Del-N35TCTP (residues 35-172) (from UniProt P63029 35-172) (domain or fragment)”?
Answer: stoichiometry N [2]: 2; stoichiometry N [3]: 2; IL-8 secretion from BEAS-2B cells by BM(PEO)3-treated DTT-pretreated Del-N35TCTP, percent of DTT-untreated Del-N35TCTP (% of DTT-untreated Del-N35TCTP) [4]: 122; IL-8 secretion from BEAS-2B cells by BMOE-treated DTT-pretreated Del-N35TCTP, percent of DTT-untreated Del-N35TCTP (% of DTT-untreated Del-N35TCTP) [4]: 108; IL-8 secretion from BEAS-2B cells by DTT-treated Del-N35TCTP, percent of DTT-untreated Del-N35TCTP (% of DTT-untreated Del-N35TCTP) [4]: 71.7; stoichiometry N [5]: 2; stoichiometry N [6]: 2

Question: With “rabbit Fc protein (Fc) (domain or fragment)” as the molecule, how does the stoichiometry N [7] read?
Answer: 2

Question: How did the stoichiometry N [8] turn out when “Fc-fused human recombinant TCTP (Fc-HrTCTP) (from UniProt P13693 1-172) (Fc fusion)” was run?
Answer: 2

Question: Which stoichiometry N (Del-N35TCTP-C172S (rat) [9]) does the source give for “Del-N35TCTP-C172S (from UniProt P63029 35-172) (domain or fragment)” here?
Answer: 2

Question: What about the IL-8 secretion from BEAS-2B cells, 5 µm/ml protein, 24 h, percent of wild-type (Del-N35TCTP) (% of wild-type) (Del-N35TCTP-C172S (rat) [10]) of the same molecule?
Answer: 36

B1: Del-N11TCTP-C172S (domain or fragment, rat, UniProt P63029 11-172, looked up)
chain: DELFSDIYKIREIADGLCLEVEGKMVSRTEGAIDDSLIGGNASAEGPEGEGTESTVVTGVDIVMNHHLQETSFTKEAYKKYIKDYMKSLKGKLEEQKPERVKPFMTGAAEQIKHILANFNNYQFFIGENMNPDGMVALLDYREDGVTPFMIFFKDGLEMEKS
Question: What does the source list for B1?
Answer: stoichiometry N [11]: 2; IL-8 secretion from BEAS-2B cells, 5 µm/ml protein, 24 h, percent of wild-type (Del-N11TCTP) [12]: 52 % of wild-type

B2: Del-N11TCTP-C28S (domain or fragment, rat, UniProt P63029 11-172, looked up)
chain: DELFSDIYKIREIADGLSLEVEGKMVSRTEGAIDDSLIGGNASAEGPEGEGTESTVVTGVDIVMNHHLQETSFTKEAYKKYIKDYMKSLKGKLEEQKPERVKPFMTGAAEQIKHILANFNNYQFFIGENMNPDGMVALLDYREDGVTPFMIFFKDGLEMEKC
notes: No stop codon in the reverse primer
Question: Which “stoichiometry N” value [11] does the source give for B2 here?
Answer: 2

B3: Del-N11TCTP (residues 11-172) (domain or fragment, rat, UniProt P63029 11-172, looked up)
chain: DELFSDIYKIREIADGLCLEVEGKMVSRTEGAIDDSLIGGNASAEGPEGEGTESTVVTGVDIVMNHHLQETSFTKEAYKKYIKDYMKSLKGKLEEQKPERVKPFMTGAAEQIKHILANFNNYQFFIGENMNPDGMVALLDYREDGVTPFMIFFKDGLEMEKC
notes: No stop codon in the reverse primer; also called Del-N11HRF
Question: How did the “stoichiometry N” value [11] turn out when B3 was run?
Answer: 2
